{
  "source": "the Human Domainome abundance scans (Beltran et al. 2025)",
  "parents": {"B1": {"name": "Transcriptional regulator ERG, residues 117 to 197; numbered along this chain, P11308 (parent)", "chain": "NMTTNERRVIVPADPTLWSTDHVRQWLEWAVKEYGLPDVNILLFQNIDGKELCKMTKDDFQRLTPSYNADILLSHLHYLRE"}},
  "note": "± gives the uncertainty stated by the source.",
  "data": [
    {"variants_of": "B1", "assay": "abundance fitness (aPCA) (normalised: wild type 0, dead -1); higher = more abundant; growth selection in yeast, the domain comes from the species named", "settings": "Homo sapiens", "values": [
      {"variant": "NMTTNERRVIVPADPTLWSTDHVRQWLEWAVKEYGLPDVNILLFQNIDGKELCKMTKDDFYRLTPSYNADILLSHLHYLRE", "note": "[Q61Y]", "abundance fitness": "-0.058 ± 0.1"},
      {"variant": "NMTTNERRVIVPADPTLWSTDHVRQWLEWAVKEYGLPDVNILLFQNIDGKELCKMTKDDFIRLTPSYNADILLSHLHYLRE", "note": "[Q61I]", "abundance fitness": "0.193 ± 0.33"},
      {"variant": "NMTTNERRVIVPADPTLWSTDHVRQWLEWAVKEYGLPDVNILLFQNIDGKELCKMTKDDFPRLTPSYNADILLSHLHYLRE", "note": "[Q61P]", "abundance fitness": "-0.617 ± 0.18"},
      {"variant": "NMTTNERRVIVPADPTLWSTDHVRQWLEWAVKEYGLPDVNILLFQNIDGKELCKMTKDDFHRLTPSYNADILLSHLHYLRE", "note": "[Q61H]", "abundance fitness": "0.173 ± 0.11"},
      {"variant": "NMTTNERRVIVPADPTLWSTDHVRQWLEWAVKEYGLPDVNILLFQNIDGKELCKMTKDDFSRLTPSYNADILLSHLHYLRE", "note": "[Q61S]", "abundance fitness": "-0.032 ± 0.05"},
      {"variant": "NMTTNERRVIVPADPTLWSTDHVRQWLEWAVKEYGLPDVNILLFQNIDGKELCKMTKDDFARLTPSYNADILLSHLHYLRE", "note": "[Q61A]", "abundance fitness": "0.011 ± 0.049"},
      {"variant": "NMTTNERRVIVPADPTLWSTDHVRQWLEWAVKEYGLPDVNILLFQNIDGKELCKMTKDDFWRLTPSYNADILLSHLHYLRE", "note": "[Q61W]", "abundance fitness": "-0.101 ± 0.065"},
      {"variant": "NMTTNERRVIVPADPTLWSTDHVRQWLEWAVKEYGLPDVNILLFQNIDGKELCKMTKDDFMRLTPSYNADILLSHLHYLRE", "note": "[Q61M]", "abundance fitness": "0.096 ± 0.076"},
      {"variant": "NMTTNERRVIVPADPTLWSTDHVRQWLEWAVKEYGLPDVNILLFQNIDGKELCKMTKDDFERLTPSYNADILLSHLHYLRE", "note": "[Q61E]", "abundance fitness": "0.056 ± 0.061"},
      {"variant": "NMTTNERRVIVPADPTLWSTDHVRQWLEWAVKEYGLPDVNILLFQNIDGKELCKMTKDDFRRLTPSYNADILLSHLHYLRE", "note": "[Q61R]", "abundance fitness": "-0.026 ± 0.041"},
      {"variant": "NMTTNERRVIVPADPTLWSTDHVRQWLEWAVKEYGLPDVNILLFQNIDGKELCKMTKDDFCRLTPSYNADILLSHLHYLRE", "note": "[Q61C]", "abundance fitness": "-0.037 ± 0.079"},
      {"variant": "NMTTNERRVIVPADPTLWSTDHVRQWLEWAVKEYGLPDVNILLFQNIDGKELCKMTKDDFGRLTPSYNADILLSHLHYLRE", "note": "[Q61G]", "abundance fitness": "-0.021 ± 0.038"},
      {"variant": "NMTTNERRVIVPADPTLWSTDHVRQWLEWAVKEYGLPDVNILLFQNIDGKELCKMTKDDFTRLTPSYNADILLSHLHYLRE", "note": "[Q61T]", "abundance fitness": "0.105 ± 0.068"},
      {"variant": "NMTTNERRVIVPADPTLWSTDHVRQWLEWAVKEYGLPDVNILLFQNIDGKELCKMTKDDFVRLTPSYNADILLSHLHYLRE", "note": "[Q61V]", "abundance fitness": "-0.002 ± 0.047"},
      {"variant": "NMTTNERRVIVPADPTLWSTDHVRQWLEWAVKEYGLPDVNILLFQNIDGKELCKMTKDDFDRLTPSYNADILLSHLHYLRE", "note": "[Q61D]", "abundance fitness": "-0.037 ± 0.12"},
      {"variant": "NMTTNERRVIVPADPTLWSTDHVRQWLEWAVKEYGLPDVNILLFQNIDGKELCKMTKDDFKRLTPSYNADILLSHLHYLRE", "note": "[Q61K]", "abundance fitness": "0.044 ± 0.094"},
      {"variant": "NMTTNERRVIVPADPTLWSTDHVRQWLEWAVKEYGLPDVNILLFQNIDGKELCKMTKDDFNRLTPSYNADILLSHLHYLRE", "note": "[Q61N]", "abundance fitness": "-0.06 ± 0.09"},
      {"variant": "NMTTNERRVIVPADPTLWSTDHVRQWLEWAVKEYGLPDVNILLFQNIDGKELCKMTKDDFFRLTPSYNADILLSHLHYLRE", "note": "[Q61F]", "abundance fitness": "-0.042 ± 0.15"},
      {"variant": "NMTTNERRVIVPADPTLWSTDHVRQWLEWAVKEYGLPDVNILLFQNIDGKELCKMTKDDWQRLTPSYNADILLSHLHYLRE", "note": "[F60W]", "abundance fitness": "0.017 ± 0.062"},
      {"variant": "NMTTNERRVIVPADPTLWSTDHVRQWLEWAVKEYGLPDVNILLFQNIDGKELCKMTKDDSQRLTPSYNADILLSHLHYLRE", "note": "[F60S]", "abundance fitness": "-0.536 ± 0.15"},
      {"variant": "NMTTNERRVIVPADPTLWSTDHVRQWLEWAVKEYGLPDVNILLFQNIDGKELCKMTKDDIQRLTPSYNADILLSHLHYLRE", "note": "[F60I]", "abundance fitness": "0.074 ± 0.11"},
      {"variant": "NMTTNERRVIVPADPTLWSTDHVRQWLEWAVKEYGLPDVNILLFQNIDGKELCKMTKDDYQRLTPSYNADILLSHLHYLRE", "note": "[F60Y]", "abundance fitness": "-0.365 ± 0.2"},
      {"variant": "NMTTNERRVIVPADPTLWSTDHVRQWLEWAVKEYGLPDVNILLFQNIDGKELCKMTKDDVQRLTPSYNADILLSHLHYLRE", "note": "[F60V]", "abundance fitness": "-0.083 ± 0.054"},
      {"variant": "NMTTNERRVIVPADPTLWSTDHVRQWLEWAVKEYGLPDVNILLFQNIDGKELCKMTKDDGQRLTPSYNADILLSHLHYLRE", "note": "[F60G]", "abundance fitness": "-0.971 ± 0.12"},
      {"variant": "NMTTNERRVIVPADPTLWSTDHVRQWLEWAVKEYGLPDVNILLFQNIDGKELCKMTKDDRQRLTPSYNADILLSHLHYLRE", "note": "[F60R]", "abundance fitness": "-0.866 ± 0.14"},
      {"variant": "NMTTNERRVIVPADPTLWSTDHVRQWLEWAVKEYGLPDVNILLFQNIDGKELCKMTKDDTQRLTPSYNADILLSHLHYLRE", "note": "[F60T]", "abundance fitness": "-0.902 ± 0.32"},
      {"variant": "NMTTNERRVIVPADPTLWSTDHVRQWLEWAVKEYGLPDVNILLFQNIDGKELCKMTKDDLQRLTPSYNADILLSHLHYLRE", "note": "[F60L]", "abundance fitness": "-0.093 ± 0.061"},
      {"variant": "NMTTNERRVIVPADPTLWSTDHVRQWLEWAVKEYGLPDVNILLFQNIDGKELCKMTKDDMQRLTPSYNADILLSHLHYLRE", "note": "[F60M]", "abundance fitness": "0.13 ± 0.089"},
      {"variant": "NMTTNERRVIVPADPTLWSTDHVRQWLEWAVKEYGLPDVNILLFQNIDGKELCKMTKDDQQRLTPSYNADILLSHLHYLRE", "note": "[F60Q]", "abundance fitness": "-1.05 ± 0.35"},
      {"variant": "NMTTNERRVIVPADPTLWSTDHVRQWLEWAVKEYGLPDVNILLFQNIDGKELCKMTKDDHQRLTPSYNADILLSHLHYLRE", "note": "[F60H]", "abundance fitness": "-0.633 ± 0.41"},
      {"variant": "NMTTNERRVIVPADPTLWSTDHVRQWLEWAVKEYGLPDVNILLFQNIDGKELCKMTKDDFQNLTPSYNADILLSHLHYLRE", "note": "[R62N]", "abundance fitness": "0.015 ± 0.09"},
      {"variant": "NMTTNERRVIVPADPTLWSTDHVRQWLEWAVKEYGLPDVNILLFQNIDGKELCKMTKDDFQYLTPSYNADILLSHLHYLRE", "note": "[R62Y]", "abundance fitness": "-0.138 ± 0.091"},
      {"variant": "NMTTNERRVIVPADPTLWSTDHVRQWLEWAVKEYGLPDVNILLFQNIDGKELCKMTKDDFQHLTPSYNADILLSHLHYLRE", "note": "[R62H]", "abundance fitness": "-0.165 ± 0.14"},
      {"variant": "NMTTNERRVIVPADPTLWSTDHVRQWLEWAVKEYGLPDVNILLFQNIDGKELCKMTKDDFQGLTPSYNADILLSHLHYLRE", "note": "[R62G]", "abundance fitness": "-0.06 ± 0.054"}
    ]}
  ]
}
